Laboratory results: paper PMC9136124

Key:
[1] = biological target: FakA linker region, central domain (FakA_L) (Staphylococcus aureus); experiment: AUC; sedimentation velocity of single constructs, c(s) model in SEDFIT, 20 mM Tris, pH 7.5, 200 mM NaCl, 5 mM DTT, 20 °C, 50,000 rpm, Rayleigh interference optics
[2] = biological target: FakA, kinase component of fatty acid kinase (Staphylococcus aureus) (Staphylococcus aureus); experiment: SEC-SAXS; Superdex 200 10/300, 20 mM Tris, pH 7.5, 200 mM NaCl, 1% glycerol; 300 μl FakA (4 mg/ml), FakA_NL (6.2 mg/ml) or FakA_LC (6 mg/ml) loaded
[3] = biological target: FakA_LC (FakA_L and FakA_C domains connected) (Staphylococcus aureus); experiment: as above
[4] = biological target: FakA_LC (FakA_L and FakA_C domains connected) (Staphylococcus aureus); experiment: SEC; analytical size exclusion chromatography on a S-75 13/300 column, 20 mM Tris, pH 7.5, 200 mM NaCl; oligomerization state estimated from a standard curve of protein standards
[5] = biological target: FakA_NL (FakA_N and FakA_L domains connected) (Staphylococcus aureus); experiment: SEC-SAXS; Superdex 200 10/300, 20 mM Tris, pH 7.5, 200 mM NaCl, 1% glycerol; 300 μl FakA (4 mg/ml), FakA_NL (6.2 mg/ml) or FakA_LC (6 mg/ml) loaded
[6] = biological target: FakA_NL (FakA_N and FakA_L domains connected) (Staphylococcus aureus); experiment: SEC; analytical size exclusion chromatography on a S-75 13/300 column, 20 mM Tris, pH 7.5, 200 mM NaCl; oligomerization state estimated from a standard curve of protein standards
[7] = biological target: FakA_αβ bundle with helix (Staphylococcus aureus); experiment: AUC; sedimentation velocity of single constructs, c(s) model in SEDFIT, 20 mM Tris, pH 7.5, 200 mM NaCl, 5 mM DTT, 20 °C, 50,000 rpm, Rayleigh interference optics
[8] = biological target: FakA C terminus, FakB substrate-binding domain (FakA_C) (Staphylococcus aureus); experiment: AUC; FakB1 mixed with each isolated FakA domain; c(s) model by the text, 'sedimentation equilibrium' by the legend of Figure 4; 20 mM Tris, pH 7.5, 200 mM NaCl, 5 mM DTT, 20 °C; apparent KD from equilibrium concentrations of duplicate experiments, single site equilibrium model

## FakA linker region, central domain (FakA_L) (domain or fragment)
[1]
  stoichiometry N: 2

## FakA, kinase component of fatty acid kinase (Staphylococcus aureus) (enzyme)
[2]
  stoichiometry N: 2

## FakA_LC (FakA_L and FakA_C domains connected) (domain or fragment)
[3]
  stoichiometry N: 2
[4]
  stoichiometry N: 2

## FakA_NL (FakA_N and FakA_L domains connected) (domain or fragment)
[5]
  stoichiometry N: 2
[6]
  stoichiometry N: 2

## FakA_αβ bundle with helix (domain or fragment)
[7]
  stoichiometry N: 2

## FakB1, fatty acid binding protein component of fatty acid kinase (Staphylococcus aureus) (from UniProt X5EH37 1-288) (natural protein)
[8]
  Kd: 16 µM
  stoichiometry N: 1
